Results as given in US20240102068A1, “C-GLYCOSYLTRANSFERASE VARIANTS AND USE THEREOF” (KOREA ADVANCED INSTITUTE OF SCIENCE AND TECHNOLOGY, priority 2021, published 2024).
“Also recorded” adds a separate entry of the source.

B1: GtCGT: wild-type C-glycosyltransferase GtUF6CGT1 from Gentiana triflora (SEQ ID NO: 1) (protein, listed as Gentiana triflora)
chain: MGSLTNNDNLHIFLVCFIGQGVVNPMLRLGKAFASKGLLVTLSAPEIVGTEIRKANNLNDDQPIKVGSGMIRFEFFDDGWESVNGSKPFDVWVYINHLDQTGRQKLPIMLKKHEETGTPVSCLILNPLVPWVADVADSLQIPCATLWVQSCASFSAYYHYHHGLVPFPTESEPEIDVQLPGMPLLKYDEVPDYLHPRTPYPFFGTNILGQFKNLSKNFCILMDTFYELEHEIIDNMCKLCPIKPIGPLFKIPKDPSSNGITGNFMKVDDCKEWLDSRPTSTVVYVSVGSVVYLKQEQVTEMAYGILNSEVSFLWVLRPPSKRIGTEPHVLPEEFWEKAGDRGKVVQWSPQEQVLAHPATVGFLTHCGWNSTQEAISSGVPVITFPQFGDQVTNAKFLVEEFKVGVRLGRGELENRIITRDEVERALREITSGPKAEEVKENALKWKKKAEETVAKGGYSERNLVGFIEEVARKTGTK
B2: Y193F (protein, listed as Gentiana triflora)
chain: MGSLTNNDNLHIFLVCFIGQGVVNPMLRLGKAFASKGLLVTLSAPEIVGTEIRKANNLNDDQPIKVGSGMIRFEFFDDGWESVNGSKPFDVWVYINHLDQTGRQKLPIMLKKHEETGTPVSCLILNPLVPWVADVADSLQIPCATLWVQSCASFSAYYHYHHGLVPFPTESEPEIDVQLPGMPLLKYDEVPDFLHPRTPYPFFGTNILGQFKNLSKNFCILMDTFYELEHEIIDNMCKLCPIKPIGPLFKIPKDPSSNGITGNFMKVDDCKEWLDSRPTSTVVYVSVGSVVYLKQEQVTEMAYGILNSEVSFLWVLRPPSKRIGTEPHVLPEEFWEKAGDRGKVVQWSPQEQVLAHPATVGFLTHCGWNSTQEAISSGVPVITFPQFGDQVTNAKFLVEEFKVGVRLGRGELENRIITRDEVERALREITSGPKAEEVKENALKWKKKAEETVAKGGYSERNLVGFIEEVARKTGTK
B3: F17G (protein, listed as Gentiana triflora)
chain: MGSLTNNDNLHIFLVCGIGQGVVNPMLRLGKAFASKGLLVTLSAPEIVGTEIRKANNLNDDQPIKVGSGMIRFEFFDDGWESVNGSKPFDVWVYINHLDQTGRQKLPIMLKKHEETGTPVSCLILNPLVPWVADVADSLQIPCATLWVQSCASFSAYYHYHHGLVPFPTESEPEIDVQLPGMPLLKYDEVPDYLHPRTPYPFFGTNILGQFKNLSKNFCILMDTFYELEHEIIDNMCKLCPIKPIGPLFKIPKDPSSNGITGNFMKVDDCKEWLDSRPTSTVVYVSVGSVVYLKQEQVTEMAYGILNSEVSFLWVLRPPSKRIGTEPHVLPEEFWEKAGDRGKVVQWSPQEQVLAHPATVGFLTHCGWNSTQEAISSGVPVITFPQFGDQVTNAKFLVEEFKVGVRLGRGELENRIITRDEVERALREITSGPKAEEVKENALKWKKKAEETVAKGGYSERNLVGFIEEVARKTGTK
B4: L164G: GtCGT single mutant L164G (protein, listed as Gentiana triflora)
chain: MGSLTNNDNLHIFLVCFIGQGVVNPMLRLGKAFASKGLLVTLSAPEIVGTEIRKANNLNDDQPIKVGSGMIRFEFFDDGWESVNGSKPFDVWVYINHLDQTGRQKLPIMLKKHEETGTPVSCLILNPLVPWVADVADSLQIPCATLWVQSCASFSAYYHYHHGGVPFPTESEPEIDVQLPGMPLLKYDEVPDYLHPRTPYPFFGTNILGQFKNLSKNFCILMDTFYELEHEIIDNMCKLCPIKPIGPLFKIPKDPSSNGITGNFMKVDDCKEWLDSRPTSTVVYVSVGSVVYLKQEQVTEMAYGILNSEVSFLWVLRPPSKRIGTEPHVLPEEFWEKAGDRGKVVQWSPQEQVLAHPATVGFLTHCGWNSTQEAISSGVPVITFPQFGDQVTNAKFLVEEFKVGVRLGRGELENRIITRDEVERALREITSGPKAEEVKENALKWKKKAEETVAKGGYSERNLVGFIEEVARKTGTK
B5: GtCGT^V93Q (protein)
chain: MGSLTNNDNLHIFLVCFIGQGVVNPMLRLGKAFASKGLLVTLSAPEIVGTEIRKANNLNDDQPIKVGSGMIRFEFFDDGWESVNGSKPFDVWQYINHLDQTGRQKLPIMLKKHEETGTPVSCLILNPLVPWVADVADSLQIPCATLWVQSCASFSAYYHYHHGLVPFPTESEPEIDVQLPGMPLLKYDEVPDYLHPRTPYPFFGTNILGQFKNLSKNFCILMDTFYELEHEIIDNMCKLCPIKPIGPLFKIPKDPSSNGITGNFMKVDDCKEWLDSRPTSTVVYVSVGSVVYLKQEQVTEMAYGILNSEVSFLWVLRPPSKRIGTEPHVLPEEFWEKAGDRGKVVQWSPQEQVLAHPATVGFLTHCGWNSTQEAISSGVPVITFPQFGDQVTNAKFLVEEFKVGVRLGRGELENRIITRDEVERALREITSGPKAEEVKENALKWKKKAEETVAKGGYSERNLVGFIEEVARKTGTK
B6: R322D (protein, listed as Gentiana triflora)
chain: MGSLTNNDNLHIFLVCFIGQGVVNPMLRLGKAFASKGLLVTLSAPEIVGTEIRKANNLNDDQPIKVGSGMIRFEFFDDGWESVNGSKPFDVWVYINHLDQTGRQKLPIMLKKHEETGTPVSCLILNPLVPWVADVADSLQIPCATLWVQSCASFSAYYHYHHGLVPFPTESEPEIDVQLPGMPLLKYDEVPDYLHPRTPYPFFGTNILGQFKNLSKNFCILMDTFYELEHEIIDNMCKLCPIKPIGPLFKIPKDPSSNGITGNFMKVDDCKEWLDSRPTSTVVYVSVGSVVYLKQEQVTEMAYGILNSEVSFLWVLRPPSKDIGTEPHVLPEEFWEKAGDRGKVVQWSPQEQVLAHPATVGFLTHCGWNSTQEAISSGVPVITFPQFGDQVTNAKFLVEEFKVGVRLGRGELENRIITRDEVERALREITSGPKAEEVKENALKWKKKAEETVAKGGYSERNLVGFIEEVARKTGTK
B7: ZmCGT: UGT708A6 from Zea mays which acts as a dual C/O-glycosyltransferase (protein, UniProt A0A096SRM5 1-475, looked up)
UDP-glycosyltransferase 708A6: MAANGGDHTSARPHVVLLPSAGMGHLVPFARLAVALSEGHGCNVSVAAVQPTVSSAESRLLDALFVAAAPAVRRLDFRLAPFDESEFPGADPFFLRFEATRRSAPLLGPLLDAAEASALVTDIVLASVALPVARERGVPCYVLFTSSAAMLSLCAYFPAYLDAHAAAGSVGVGVGNVDIPGVFRIPKSSVPQALHDPDHLFTQQFVANGRCLVACDGILVNTFDAFEPDAVTALRQGSITVSGGFPPVFTVGPMLPVRFQAEETADYMRWLSAQPPRSVVYVSFGSRKAIPRDQLRELAAGLEASGKRFLWVVKSTIVDRDDTADLGGLLGDGFLERVQGRAFVTMGWVEQEEILQHGSVGLFISHCGWNSLTEAAAFGVPVLAWPRFGDQRVNAALVARSGLGAWEEGWTWDGEEGLTTRKEVAKKIKGMMGYDAVAEKAAKVGDAAAAAIAKCGTSYQSLEEFVQRCRDAERK

Tested on: FK
Test: dcII production from FK by C-glycosyltransferase candidates and GtCGT mutants in FK-producing E. coli, flask culture
Type: cell-based
Conditions: for dcII production: FK-producing E. coli strain; for KA production compared with wild-type GtCGT: mutants transformed into FK strains
Protocol: Flask culture was carried out under the following conditions. Colonies were seeded into 10 mL of LB medium supplemented with appropriate concentrations of antibiotics, followed by culture overnight at 37° C. The culture fluid thus prepared was passaged into a 250 mL baffled flask containing 50 mL of R/2 medium supplemented with 3 g/L yeast extract and 20 g/L glucose (with 0.45 g/L ascorbic acid if necessary), followed by culture at 30° C. and 200 rpm. The composition of R/2 medium (pH 6.8) was as follows (per liter): 2 g of (NH4)2HPO4, 6.75 g of KH2PO4, 0.85 g of citric acid, 0.7 g of MgSO4·7H2O, and 5 ml of trace metal solution (TMS) [10 g of FeSO4·7H2O, 2.25 g of ZnSO4·7H2O, 1 g of CuSO4·5H2O, 0.5 g of MnSO4·5H2O, 0.23 g of Na2B4O7·10H2O, 2 g of CaCl2·2H2O, and 0.1 g of (NH4)6Mo7O24 per liter of 5 M HCl]. When OD600 of the culture fluid reached 0.6-0.8, 1 mM isopropyl β-D-1-thiogalactopyranoside (IPTG) was added to induce exogenous gene expression, followed by culture for 48 hours.
After culture, production analysis was performed under the following conditions. After flask culture, 50 mL of the culture fluid was centrifuged at 4,000 g for 30 minutes, and then the supernatant was desalted and concentrated. Here, Oasis HLB cartridges (Water) were used. The supernatant was concentrated 1-fold for FK, 30-fold for KA, 45-fold for dell, and 200-fold for carminic acid. The concentrated sample was re-dissolved in an appropriate volume of DMSO and impurities were then removed therefrom using a 0.22 μm PTFE filter. The prepared sample was analyzed by MS (LC/MSD VL; Agilent) coupled with HPLC (1100 series; Agilent). An Eclipse XDB-C18 column was used, 0.1% formic acid was used as buffer A, and methanol was used as buffer B. Analysis was performed in an ESI negative mode. For more accurate analysis of carminic acid, LC-MS/MS was performed using an HPLC Triple Quadrupole Mass Spectrometer (LCMS-8050, Shimadzu) (MRM mode).
Flask culture started by seeding colonies from LB agar plates into test tubes containing 10 mL of LB. As such, an appropriate concentration of antibiotics was added, followed by culture overnight at 37° C. at 220 rpm. 1 mL of the seed culture thus prepared was inoculated into a 250 mL baffled flask containing 50 mL of R/2 medium (supplemented with 3 g/L yeast extract and 20 g/L glucose), followed by culture at 30° C. and 200 rpm. The composition of R/2 medium was as follows (pH 6.8, per 1 L): 2 g of (NH4)2HPO4, 6.75 g of KH2PO4, 0.85 g of citric acid, 0.8 g of MgSO4·7H2O, and 5 ml of trace metal solution (TMS). The composition of TMS was as follows (based on 0.1 M HCl, per 1 L): 10 g of FeSO4·7H2O, 2.25 g of ZnSO4·7H2O, 1 g of CuSO4·5H2O, 0.58 g of MnSO4·5H2O, 0.02 g of Na2B4O7·10H2O, 2 g of CaCl2·2H2O, and 0.1 g of (NH4)6Mo7O24·4H2O. When OD600 of the culture fluid reached 0.6-0.8, 0.5 mM IPTG was added to induce exogenous enzyme expression, followed by culture for 48 hours. In all experiments for producing flavokermesic acid, kermesic acid, dcII, and carminic acid, 0.45 g/L of ascorbic acid was further added.
The production of carminic acid (CA) from FK was performed by two biosynthesis pathways, both of which require monooxygenase and C-glycosyltransferase. FK may be oxidized into KA or may be C-glycosylated into dcII. […] In order for the enzyme to have activity, however, it must be glycosylated, and since it also has a transmembrane helix and a signal peptide, successful expression in cells such as E. coli is considered difficult.
For the enzymes selected above, pCDF-DcCGT, pCDF-MiCGT, pCDF-SfCGT, pCDF-EnCGT, pCDF-OsCGT, pCDF-FeCGT, pCDF-GmCGT, pCDF-AvCGT, pCDF-AvCGT, pCDF-ZmCGT, and pCDF-GtCGT were constructed, and all genes except for the iroB gene amplified from genomic DNA of E. coli Nissle using the iroB_gib_F primer and the iroB_gib_R primer were artificially synthesized and inserted into the NdeI site of the pCDFDuet-1 plasmid using Gibson assembly. […]

Row | Molecule | dcII production from FK (in words) (FK-producing E. coli) | KA production compared with wild-type GtCGT (flask culture) | further results
1 | B1 | able to successfully convert FK into dell |  | dcII production (flask culture): 0.13 mg CA eq/L; dcII production (galU, pgm and ndk overexpressed): 0.30 mg CA eq/L
2 | B2 | second highest concentration of dell | higher KA production than wild-type GtCGT | 
3 | B3 |  | higher KA production than wild-type GtCGT | 
4 | B4 |  | higher KA production than wild-type GtCGT | 
5 | B5 | highest dcII production | higher KA production than wild-type GtCGT | dcII production increase compared to wild-type GtCGT (FK strain, flask culture): about 2.9 fold
6 | B6 |  | higher KA production than wild-type GtCGT | 
7 | B7 | able to successfully convert FK into dell; also recorded: very small amount |  | main product from FK (FK-producing E. coli): O-glycosylated FK
